The results in this text go back to paper PMC8248824 (Acta Crystallographica. Section F, Structural Biology …, 2021).

The labels stand for the following.
B1: DARPin D3 (designed binder)
chain: GSDLGKKLLEAARAGQDDEVRILMANGADVNAFDHSGSTPLHLAAAIGHLEIVEVLLKYGADVNAEDNWGNTPLHQAAWVGHREIVEVLLKYGADVNAQDKFGKTAFDISIDNGNEDLAEILQKLN
notes: N2C DARPin selected by ribosome display; source: E. coli XL1 Blue, purified (HisPur Cobalt Spin Plates)
B2: DARPin D6 (designed binder)
chain: GSDLGKKLLEAARAGQDDEVRILMANGADVNAQDVSGQTPLHLAAIWGHLEIVEVLLKTGADVNAWDHWGNTPLHLAAWQGHLEIVEVLLKAGTDVNAKDSEGFTPLHLAAWWGHLEIVEVLLKHGADVNAQDKFGKTPFDLAIDNGNEDIAEVLQKAAKLN
notes: N3C DARPin selected by ribosome display; source: E. coli XL1 Blue, purified (HisPur Cobalt Spin Plates)
B3: DARPin D5 from the pQiq_FLAG expression vector (N-terminal His6 tag, C-terminal FLAG tag) (designed binder)
chain: DLGKKLLEAARAGQDDEVRILMANGADVNAFDHNGSTPLHLAAAIGHLEIVEVLLKYGADVNAEDNWGNTPLHQAAWVGHLEIVEVLLKNGADVNAQDKFGKTAFDISIDNGNEDLAEILQKLN
notes: DARPin D5 itself, as printed within the crystallisation construct (from Asp13); source: E. coli XL1 Blue, purified (HisPur Cobalt Spin Plates)
B4: DARPin D5 (designed ankyrin-repeat protein D5), His6 tag removed by 3C protease (designed binder)
chain: GPGSDLGKKLLEAARAGQDDEVRILMANGADVNAFDHNGSTPLHLAAAIGHLEIVEVLLKYGADVNAEDNWGNTPLHQAAWVGHLEIVEVLLKNGADVNAQDKFGKTAFDISIDNGNEDLAEILQKLN
notes: N2C DARPin selected by ribosome display; Carries the framework mutation L86Q against the DARPin consensus; source: E. coli XL1 Blue, purified (Ni-NTA, 3C protease cleavage, reverse Ni-NTA); not shown: His6, N-terminal, cleaved
B5: DARPin D4 (designed binder)
chain: GSDLGKKLLEAARAGQDDEVRILMANGADVNAFDHNGSTPLHLAAAIGHLEIVEVLLKYGADVNAEDNWGNTPLHQAAWVGHREIVEVLLKYGADVNAQDKFGKTAFDISIDNGNEDLAEILQKLN
notes: as for B1
B6: DARPin D1 (designed binder)
chain: GSDLGKKLLEAARAGQDDEVRILMTNGADVNAFDHNGSTPLHLAAAIGHLEIVEVLLKYGADVNAEDNWGNTPLHQAAWVGHREIVEVLLKYGVDVNAQDKFGKTAFDISIDNGNEDLAEILQKLN
notes: as for B1
B7: DARPin D2 (designed binder)
chain: GSDLGKKLLEAARAGQDDEVRVLMANGADVNAFDHNGSTPLHLAAAIGHLEIVEVLLKYGADVNAEDNWGNTPLHQAAWVGHREIVEVLLKYGADVNAQDKFGKTAFDISIDNGNEDLAEILQKLN
notes: as for B1
B8: DARPin D5 (His6- and FLAG-tagged form used for characterisation) (designed binder)
chain: GSDLGKKLLEAARAGQDDEVRILMANGADVNAFDHNGSTPLHLAAAIGHLEIVEVLLKYGADVNAEDNWGNTPLHQAAWVGHLEIVEVLLKNGADVNAQDKFGKTAFDISIDNGNEDLAEILQKLN
notes: as for B1
B9: DARPin D8 (designed binder)
chain: GSDLGKKLLEAARAGQDDEVRILMANGADVNAQDVSGQTPLHLAAIWGHLEIVEVLLKTGADVNAWDHWGNTPLHLAAWQGHLEIVEVLLKAGADVNAKDSEGFTPLHLAAWWGHLEIVEVLLKHGADVNAQDKFGKTPFDLAIDNGNEDIAEVLQKAAKLN
notes: as for B2
B10: DARPin D7 (designed binder)
chain: GSDLGKKLLEATRAGQDDEVRILMANGADVNAQDVSGQTPLHLAAIWGHLEIVEVLLKTGADVNAQDWFGETPLHLAAVQGHLEIVEVLLKTGADVNAWDAYGHTPLHLAANYGHLEIVEVLLKHGADVNAQDKFGKTPFDLAIDNGNEDIAEVLQKAAKLN
notes: as for B2

The target in the first assay is biotinylated HER3 domain 4 with N-terminal AviTag and His6 tag (Homo sapiens). The assay is described as follows: SPR; ProteOn XPR36, biotinylated HER3d4 on a NeutrAvidin NLC chip; monomeric DARPins injected at 2.5, 7.5, 22, 67 and 200 nM, 60 ul/min; PBS with 0.005% Tween-20; kinetic titration model.
Conditions: not given
B1 displayed a dissociation constant (Kd) of 8.1 nM.
The same measure, in the same setting: under B2 stands 4.5 nM.

In the next assay the target is T1, biotinylated HER3 domain 4 with N-terminal AviTag and His6 tag (Homo sapiens, biotin (in vitro biotinylation of the AviTag)).
T1 construct: also called biotinylated HER3d4; HER3d4; source: Sf9 (baculovirus), secreted, purified (IMAC, in vitro biotinylation, Superdex 75 SEC); not shown: AviTag, N-terminal, kept
T1 chain: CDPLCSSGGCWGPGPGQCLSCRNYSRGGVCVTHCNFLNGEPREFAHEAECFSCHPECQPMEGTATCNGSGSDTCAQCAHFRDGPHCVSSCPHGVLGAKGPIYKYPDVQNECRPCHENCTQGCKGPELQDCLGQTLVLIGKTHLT
The description is as above. Conditions: both partners purified.
Take B3: the binding result was “binds”.

Another assay addresses T2, HER3 extracellular domain 4 (HER3d4) without AviTag, deglycosylated (Homo sapiens).
T2 construct: PNGase F treatment may have turned glycosylated Asn into Asp (surmise); also called HER3 domain 4; ErbB3 domain 4; source: Sf9 (baculovirus), secreted, purified (IMAC), deglycosylated with PNGase F, ConA Sepharose
T2 chain: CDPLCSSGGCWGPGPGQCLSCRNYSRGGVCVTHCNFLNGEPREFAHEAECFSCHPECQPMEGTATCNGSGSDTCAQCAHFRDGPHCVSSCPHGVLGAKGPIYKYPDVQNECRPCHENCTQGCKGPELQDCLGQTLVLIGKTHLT
The assay is described as follows: crystal structure; DARPin D5 incubated with HER3d4 at a 1:1.2 molar ratio, complex purified by gel filtration in PBS; sitting drop, 277 K; two crystal forms, P2(1) at 2.3 A and P2(1)2(1)2(1) at 2.0 A. Particulars: both partners purified.
Take B4: the binding result is reported as “binds”.

The next assay deals with T3, HER3 extracellular domain 4, biotinylated (N-terminal AviTag and His6 tag) (human, biotin (in vitro biotinylation, AviTag)).
T3 construct: HER3 (ErbB3) extracellular domain 4, human, residues 500-643 of UniProt entry P21860; also called HER3d4; HER3 domain 4; source: Sf9 insect cells (baculovirus), secreted, purified (IMAC, Superdex 75), biotinylated in vitro; not shown: AviTag, N-terminal, kept
T3 chain: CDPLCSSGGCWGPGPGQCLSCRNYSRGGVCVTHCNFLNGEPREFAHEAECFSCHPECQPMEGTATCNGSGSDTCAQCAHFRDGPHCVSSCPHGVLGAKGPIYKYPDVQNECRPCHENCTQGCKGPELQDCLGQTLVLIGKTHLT
Description: SPR; ProteOn XPR36, NeutrAvidin NLC chip; biotinylated HER3d4 immobilised; monomeric DARPins injected at 2.5, 7.5, 22, 67 and 200 nM (duplicates), 60 µl/min, 5 min association, 5 min dissociation; PBS with 0.005% Tween-20; kinetic titration model. Conditions: both partners purified.
B5 displayed a Kd of 4.4 nM, a koff of 0.00669 s⁻¹ and a kon of 1.51e+06 M⁻¹ s⁻¹.
The molecule B6 had a dissociation constant Kd of 7.6 nM, a dissociation rate constant (koff) of 0.00932 s⁻¹ and a kon of 1.23e+06 M⁻¹ s⁻¹.
In the case of B1, the koff stood at 0.0109 s⁻¹ and the kon is 1.35e+06 M⁻¹ s⁻¹.
Turning to B7, the dissociation constant (Kd) is 5.7 nM, the koff is 0.00783 s⁻¹ and the kon stood at 1.37e+06 M⁻¹ s⁻¹.
The matching figures for B8: 6.9 nM, 0.00856 s⁻¹ and 1.25e+06 M⁻¹ s⁻¹.
As to B2, the dissociation rate constant (koff) was determined as 0.000623 s⁻¹ and the on-rate constant (kon) came out at 138000 M⁻¹ s⁻¹.
Molecule B9 had a dissociation constant Kd of 5 nM, a koff of 0.000791 s⁻¹ and a kon of 158000 M⁻¹ s⁻¹.
The like results for B10 were, in that order, 7.5 nM, 0.00147 s⁻¹ and 196000 M⁻¹ s⁻¹.
